# Assay results as given in US20100093980A1 (Biogen, published 2010).
# Where a chain is given by its changes, count along the chain named.
# B1: Chimeric HP1/2 Fab (murine VH and VL domains) (Fab, V domains shown)
# VH: EVQLQQSGAELVKPGASVKLSCTASGFNIKDTYMHWVKQRPEQGLEWIGRIDPASGDTKYDPKFQVKATITADTSSNTAWLQLSSLTSEDTAVYYCADGMWVSTGYALDFWGQGTTVTVSS
# VL: SIVMTQTPKFLLVSAGDRVTITCKASQSVTNDVAWYQQKPGQSPKLLIYYASNRYTGVPDRFTGSGYGTDFTFTISTVQAEDLAVYFCQQDYSSPYTFGGGTKLEIK
# notes: Fab fragment; Constant parts (CH1, CL) are not specified; detection was with goat anti-human IgG HRP conjugate; also called chimeric Fab
# B2: Humanized HP1/2 Fab V24A_T32V (Fab, V domains shown)
# VH: EVQLVQSGAEVKKPGATVKISCKASGFNIKDVYMHWVQQAPGKGLEWMGRIDPASGDTKYDPKFQVRVTITADTSTDTAYMELSSLRSEDTAVYYCATGMWVSTGYALDFWGQGTLVTVSS
# VL: DIVMTQSPDSLAVSLGERATINCKASQSVTNDVAWYQQKPGQPPKLLIYYASNRYTGVPDRFSGSGSGTDFTLTISSLQAEDVAVYYCQQDYSSPYTFGQGTKVEIK
# notes: Fab fragment; Constant parts are not specified
# B3: Humanized HP1/2 Fab V24F_T32V (Fab, V domains shown)
# VH: B2 VH with A24F
# VL: B2 VL
# notes: as for B2
# B4: Humanized HP1/2 Fab V24S_F27Y_T32V (Fab, V domains shown)
# VH: B2 VH with A24S, F27Y
# VL: B2 VL
# notes: as for B2
# B5: HP1/2 Fab, straight CDR graft (VH CDR graft paired with VL CDR graft) (Fab, V domains shown)
# VH: B2 VH with A24V, V32T
# VL: B2 VL
# notes: as for B2
# B6: Humanized HP1/2 Fab F27Y_T32V_M96L (VH SEQ ID NO: 25) (Fab, V domains shown)
# VH: B2 VH with A24V, F27K, M100L
# VL: B2 VL
# notes: as for B2
# Biological target: T1, purified α4β1 VLA4 integrin (UniProt P13612 34-1032; P05556 21-798)
# T1 construct: Purified VLA4 coated on the plate at 1 ug/ml; also called α4β1 integrin
# T1 sequence (P13612 34-1032, form in doubt, chain 1 of 2): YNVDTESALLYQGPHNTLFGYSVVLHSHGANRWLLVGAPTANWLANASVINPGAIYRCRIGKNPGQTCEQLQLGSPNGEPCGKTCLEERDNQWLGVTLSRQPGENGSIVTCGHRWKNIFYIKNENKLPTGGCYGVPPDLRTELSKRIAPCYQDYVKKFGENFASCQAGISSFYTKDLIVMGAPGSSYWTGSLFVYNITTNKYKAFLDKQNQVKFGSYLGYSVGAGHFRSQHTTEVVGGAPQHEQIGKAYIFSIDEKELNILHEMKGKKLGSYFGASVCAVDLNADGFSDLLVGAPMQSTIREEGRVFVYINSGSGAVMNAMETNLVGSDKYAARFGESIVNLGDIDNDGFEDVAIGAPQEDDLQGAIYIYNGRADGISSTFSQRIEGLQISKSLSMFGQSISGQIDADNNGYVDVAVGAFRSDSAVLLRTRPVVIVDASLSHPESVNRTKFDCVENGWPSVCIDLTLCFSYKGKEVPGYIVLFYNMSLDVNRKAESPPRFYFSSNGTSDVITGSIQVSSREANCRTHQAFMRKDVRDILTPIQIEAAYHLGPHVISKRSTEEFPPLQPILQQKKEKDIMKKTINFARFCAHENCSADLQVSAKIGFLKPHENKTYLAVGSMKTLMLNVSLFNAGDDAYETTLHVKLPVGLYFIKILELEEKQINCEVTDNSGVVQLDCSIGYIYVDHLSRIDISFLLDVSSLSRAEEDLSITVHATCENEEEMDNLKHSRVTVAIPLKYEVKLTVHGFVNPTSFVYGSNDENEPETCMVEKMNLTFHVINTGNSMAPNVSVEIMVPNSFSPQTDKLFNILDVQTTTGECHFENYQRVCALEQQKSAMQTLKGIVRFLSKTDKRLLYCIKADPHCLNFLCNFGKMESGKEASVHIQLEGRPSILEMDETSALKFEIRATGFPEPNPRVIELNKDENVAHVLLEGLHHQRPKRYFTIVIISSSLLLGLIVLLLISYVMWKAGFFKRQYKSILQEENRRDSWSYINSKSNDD
# T1 sequence (P05556 21-798, form in doubt, chain 2 of 2): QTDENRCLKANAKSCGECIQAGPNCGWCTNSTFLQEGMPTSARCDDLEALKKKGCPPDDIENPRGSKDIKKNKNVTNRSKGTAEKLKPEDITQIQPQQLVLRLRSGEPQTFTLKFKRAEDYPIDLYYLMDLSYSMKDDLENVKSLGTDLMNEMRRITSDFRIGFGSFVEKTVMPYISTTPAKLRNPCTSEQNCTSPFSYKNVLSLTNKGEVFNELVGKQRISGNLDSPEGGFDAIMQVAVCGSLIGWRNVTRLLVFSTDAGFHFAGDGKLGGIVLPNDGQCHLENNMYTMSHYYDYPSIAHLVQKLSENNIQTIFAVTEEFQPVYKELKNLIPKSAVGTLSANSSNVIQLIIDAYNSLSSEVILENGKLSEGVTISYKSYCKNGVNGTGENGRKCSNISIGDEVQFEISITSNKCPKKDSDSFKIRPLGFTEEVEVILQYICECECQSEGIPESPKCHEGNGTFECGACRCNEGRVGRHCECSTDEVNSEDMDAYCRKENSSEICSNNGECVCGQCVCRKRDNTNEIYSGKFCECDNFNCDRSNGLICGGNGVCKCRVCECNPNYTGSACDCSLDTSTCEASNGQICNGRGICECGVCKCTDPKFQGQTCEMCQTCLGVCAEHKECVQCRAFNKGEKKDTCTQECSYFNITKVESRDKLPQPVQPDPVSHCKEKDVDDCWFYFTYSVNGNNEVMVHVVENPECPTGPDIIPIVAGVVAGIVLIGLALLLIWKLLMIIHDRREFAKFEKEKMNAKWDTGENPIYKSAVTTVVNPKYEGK
# Test: ELISA, Fab on plate-coated purified VLA4, goat anti-human IgG HRP detection
# Method: In this assay, 1 ug/ml of purified VLA4 (in 50 mM NaHCO₃ buffer (pH 9.2) containing 10 ug/ml BSA) was coated on a 96-well (100 ul/well) Corning Easy-wash plate and incubated overnight at 4° C. Following incubation, the plate was blocked with 150 ul/well of blocking buffer (50 mM Tris-HCl pH7.5, 150 mM NaCl and 2% Dry Milk) for 60 minutes at room temperature. The plated was then washed four times with TBS Washing buffer (50 mM Tris-HCl pH 7.5, 150 mM NaCl, 0.05% Tween-20). Dilutions of each HP1/2 Fab to be tested were prepared in binding buffer (TBS buffer containing 2% Dry Milk) and 100 ul of each dilution was added to the designated wells (100 ul of TBS assay buffer was used as blank control). The plate was then incubated for 60 minutes at room temperature, and then washed four times with TBS Washing buffer. The detection antibody (goat anti-human IgG HRP conjugate) was added at 100 ul/well and the plated was again incubated at room temperature for 60 minutes and washed four times with TBS Washing buffer beforeadding 100 ul/well HRP Substrate buffer and incubating another 30-60 minutes. To stop the reaction, 100 ul of 1 NH2SO4 was added to each well. The plate was read in a Molecular Devices ELISA plate reader at […], and the data was analyzed using Softmax software and EC50 values calculated by GraphPad Prism 4. The EC50 values observed for the test Fab fragments with VH and VL domains are tabulated in […]
row,EC50 [nM],Binder
1,0.052,B1
2,0.066,B2
3,0.13,B3
4,0.032,B4
5,1.1,B5
6,0.14,B6
